In paper PMC10754087:

Target: Yeast Hsp90 wildtype construct without the coiled-coil motif and without cysteine mutation (yeast) (UniProt P02829)
Experiment: neutron spin echo spectroscopy; Hsp90 wildtype at 50 mg mL^-1 (614 µM) in D2O buffer with 150 mM KCl, 10 mM MgCl2, 295 K; effective diffusion compared with rigid-body models of dimer and hexamer

stoichiometry N: 6
Substance: Yeast Hsp90 wildtype construct without the coiled-coil motif and without cysteine mutation, P02829 1-709 (natural protein; other documents disagree on this pair)
